In the DeepSol protein solubility set:

assay: soluble on expression in E. coli; label from the status in PepcDB or PDB records

Soluble on expression in E. coli, not soluble:
MGSDKIHHHHHHMPYSLHLPGYSIGDNAYEKIDAIVSTYGSSVAVIGGKTALEKSRPRLEAALAHSGIEVVDWIVYGHNCTYERVDALCGMPTVQQADMIFGVGGGRAVDTVKVVANRLGKPLFAFPTLGSNCAAATNLSVVYKDDDSLAGYDFQRGPCHHVFIDTTVIAQSPAELLWAGIADGMSKECEVKLQSRGRNLSHAPLMGRNVCSAVTPALMDFGLQALEDCRAGRSSQAIEEVALAIIMTCGYVSNMAVDPGQAYYYNSSLAHAFYNSSTAFPECVGKHLHGEIVSYGVLALLQYDGDMETKRRYVEFYKQMGFPLTLADLDLQESDIPELVSHVPATTEWKTGDFDLERFAQAIIDAQVFA
MGSDKIHHHHHHMQAKLTKKEFIEWLKTSEGKQFNVDLWYGFQCFDYANAGWKVLFGLLLKGLGAKDIPFANNFDGLATVYQNTPDFLAQPGDMVVFGSNYGAGYGHVAWVIEATLDYIIVYEQNWLGGGWTDRIEQPGWGWEKVTRRQHAYDFPMWFIRPNFKSETAPRSIQSPTQASKKETAKPQPKAVELKIIKDVVKGYDLPKRGGNPKGIVIHNDAGSKGATAEAYRNGLVNAPLSRLEAGIAHSYVSGNTVWQALDESQVGWHTANQLGNKYYYGIEVCQSMGADNATFLKNEQATFQECARLLKKWGLPANRNTIRLHNEFTSTSCPHRSSVLHTGFDPVTRGLLPEDKQLQLKDYFIKQIRVYMDGKIPVATVSNESSASSNTVKPVASAWKRNKYGTYYMEESARFTNGNQPITVRKIGPFLSCPVAYQFQPGGYCDYTEVMLQDGHVWVGYTWEGQRYYLPIRTWNGSAPPNQILGDLWGEIS
MGSDKIHHHHHHMQATTATPHDIVFLFDCDNTLLDNDHVLADLRAHMMREFGAQNSARYWEIFETLRTELGYADYLGALQRYRLEQPRDTRLLLMSSFLIDYPFASRVYPGALNALRHLGARGPTVILSDGDVVFQPRKIARSGLWDEVEGRVLIYIHKELMLDQVMECYPARHYVMVDDKLRILAAMKKAWGARLTTVFPRQGHYAFDPKEISSHPPADVTVERIGDLVEMDAEWLLAEKR
MGSDKIHHHHHHMQCIRVGVIGAGGVAQVEHIPNLLKLHRQFKILGVYDPSRKVRAFVGEEFGLETFSDLDALLAMPLDAVVIASPDALHREQSLAAFARGLHVFCEKPLCYGAQDIDQLIAARDRAGKVLQVGYMKRFDPSYEAALNMLPGTARTLRSVSVEVNDPDAWPFIRHASTCRGDDVAAELIASTEARQREQVDRAVPGLDDPHAFRGFVGAYSSSIVHDVNAVHGLLDALGVADGEIVGASLFAKGEAGQGTVRLLDGQALWTMAHIATPGLPDYRERITLHFDDASLELEFPSPYLNHQPTRLTIRTGDGHTLSSRDIRSGYEEAFVEELKGFWSAIVEGTAVRNTAEHARRDMTLLAGLTRHHLDQSKQSGVRP
MGSDKIHHHHHHMQDFSNLVEKVENTLIPYFRKIEKRALFNQEKVLNAFHHVKASESDLQGSTGYGYDDFGRDHLEQIYAHTFKADDALVRPQIISGTHAITLALQSTLKNNDELLYITGSPYDTLLEVIGINGNGVESLKEYGVRYNEVELRDGRIDIPKVITAINDNTKVVAIQRSKGYDQRPSITINEIEQAITSIKEVYPNIIIFVDNCYGEFVEDKEPIEVGADLIAGSLIKNPGGGLAKIGGYIAGRQDLIERCGYRLTAPGIGKEAGASLNSLQEMYQGFFLAPHVVSQSLKGALFTSLLLEKINMKTSPKYNVYRTDLIQTVQFETKEQMISFCQSIQHASPINAHFSPEPSYMPGYEDDVIMAAGTFIQGSSIELSADGPIRPPYEAYVQGGLTYEHVKLAVTRAVQHMQENNLL
MGSDKIHHHHHHMQDLLRWKNSKHRKPLILKGVRQVGKTWLLKEFARRYYNNLAYFNFDEHPEYKQFFENTKDVERILQNLMMASGQIINPKEPGTTLIVFDEIQECPNALNTLKYFCENTPHYHVACAGSLLGIALSKPASFPVGKVDFLEIGPMTFTEFLLANGDGNFVSYLDNLDRIEPIPDAFFNPLYEKLKMYFVTGGMPESVRSWTEERDVELVQQVLANILGAYERDFAKHPDPKDFPKISLIWKSLPSQLARENKKFIYKVVKEGARAREYEEALQWLCDASLAYKIYRSSAPGLPISAYDDLAAFKLYLVDVGLLRRLSLLAPSAFGEGNRLFVEFKGALSENYVLQALRNQLEAMPRYWTMDNPRHEVDFLIQRENEIIPVEVKSETNVESRSLKKFKEKYGDKVKLRVRFSLNNLRLDGDLLNIPLFITDYADKLIGMALTDQPKE
MGSDKIHHHHHHMQDLNDIALFAAVVKHNGFSAAARDLNVPKSKLSKHVARLEEQLGVRLLERSTRKLRMTEVGRIFYEHAQGLLDGVAAAEAEIAAVRAEPTGVVRLACPIGFTPMLADILPAFHRRYPGVRLLITASNRRIDLIEERIDVALRARDQLDTDSQLIVRKFGEVRQRLAASPTLLARLGEITTDNLSQMPTLSMNEQHPNDVWRLVHATGGAIEIAHRPVVGCSDFLILERAAIEGMGIALLPDHICERAFRTGALVPVLPEWTSGNVMVHLVFPSRHGLLPATRALIDFLAENLIKALERCREVDPRPAASFEI
MGSDKIHHHHHHMQEIFAVLPETIRQLLKKLPPSIQKDVEEIRIRVHRPLEVIVNHLPHYPEHQGCEYVVTTKDAQFLLNQLSAYSIYAFEEELKRGFITMAGGHRVGLAGKVTLEKGYVKTVRDISSFNIRVAKQKIGTAEPLISHVYQKGWLNTLLIGPPQSGKTTLLRDLARLVSVGWSRKGIPPLKVGIVDERSEIAAAVKGVPQHELGMRVDVLDGCPKAEGMMMMIRSMSPDVLIVDEIGRKEDCVAIQEALHAGVKVMTTAHGYELEEVSKRPAIRELLEIEAFDRCIELERRAKPGVVRRIRNAKAKDVGYVS
MGSDKIHHHHHHMQFNKPLRQGVLQKRYKRFLADIDFGDNETTTTHCPNTGAMTGCAEPGFTAWCSVSDNPKRKYSLTWELAQNNNGEMIVVNTQHANRMAGELLQTNLVPELSQWQELKPEQRYGKEKSRIDWWGVDQHNRECFIEVKSVTLADASQGYFPDAVSQRAHKHLNELMQVVADGHRAVQLYMVMHDGIERVSPAAHIDSQYAELCRKAASVGVEFYAVKCRASAKEIKLERPVPVSL
MGSDKIHHHHHHMQKKGNKYGTHRVLAPQGVLPQPAEKVDNNMDEIYDNEILIDVKTLNIDSASFTQIHEQAGGDKAKIAEIMLGIVAKQGKHRNPVTGSGGMLLGVVEKIGDALKDKIDLKVGDKIATLVSLSLTPLRIDKIKEIRPDVDQVDIEGKAILFESGIYAKIPNDLPEKLALSALDVAGAPAQTAKLVKPGDTVLIIGAGGKSGMLCCYEAKKRAGVTGKVIGLCHSQKSTDRLKALGFCDHVFSADATKPVPVMEEIEKLTNGEMCDVTINNVNITDTEMTSILCTKNDGIVYFFSMATSFTKAALGAEGVGSDVTMIVGNGYTKGHAEITLQELRECEALRKVFTELYA
MGSDKIHHHHHHMQKLLSVIPSVDKLIKQLAGIALIQQYGHQAFVAQARQVIDSLRQHILTHQSLPVDQPADNLLSLIATNLQQTQQIAMKKVFNLTGTILHTNLGRAIWSEAAITAASDAMRHHSALEFDIEAGKRSHRDNTISQLLCEITGAEAACVVNNNAAAVLLMLATFAKGKEVIVSRGELVEIGGAFRIPDIMQQAGCKLVEVGTTNRTHLKDYRAAINENTALLMKVHTSNYQIQGFTHSVSEQQLVELGQEVGLPVMSDLGSGSLIDMATFGLPAEPLVQQKVASGVALVTFSADKLLGGPQAGIIVGKKADIEALQAHPLKRVLRCDKVILAGLEATLRHYLLPDQLTTHLPTLSLLTQSIDHLRVKATRLQNSLSKRLDARYHLQIEQSLAQIGSGALPTERLASLAVTITAPTQRDLLQLEQQFKMLKYPIIGRFAEQKLWLDLRSVAQFDQLIEMLEEK
MGSDKIHHHHHHMQLSAMFVHPVKSCRGIAFDRAYAGKLGLLHDREWLLVSPDGQQITARAHPKLVTIRVELLPGGALLHHSGKAPIFAMATAYTRPHPAQVWKDGFQAWHGDERVDAWFADILGCDCRLLWLGAQSNRPFKGGPETMSFADGYPFLLASQASLDDLNRQLAAPVTLRHFRPNLVVSGAYPWEEDEWQVIRIGDVEFDVVKPCVRCVLTTVDPELGEKRADGEPLQTLIRTRMLDAGVCFGMNLRARNEGVLELGAPVEVLEQRYSF
MGSDKIHHHHHHMQPLLQLQGITKSFPGVKALSGAALNVYPGKVMALVGENGAGKSTMMKVLTGIYRKDAGSIHFLGQEVDFNGPKASQEAGIGIIHQELNLIPQLTIAENIFLGREFTNRFGRIDWNKMYAEADKLLKRLNLRYDSRRMVGDLSIGDQQMVEIAKVLSFESKVIIMDEPTDALTDTETASLFSVINELQSQGCGIVYISHRLKEIFEICDDITVFRDGQFIGERPVSDLEEDTLIEMMVGRKLEDQYPRSNKAPGEVRLKVQNLSGPGVDSVSFTVRKGEILGVAGLMGAGRTELMKILYGALPRTGGNVTLDGRDVVTRKPQDGLANGIVYISEDRKRDGLVLGMSVKENMSLTALRYFSHAGGRLKHAEEQLTVADFIRLFNVKTPSMEQPIGLLSGGNQQKVAIARGLMTRPNVLILDEPTRGVDVGAKKEIYQLINQFKEEGLSIILVSSEMPEVLGMSDRIIVMHEGRLSGDFPIEQATQEALMAAAVGKQYGAKQE
MGSDKIHHHHHHMQPTYNIDNPNLSYEAKRDLWRIGFGLQKVDNLVPSAYMESLAEKQSRGELTYEQVYEDATAYHHTIDASTEEADLVSLRIVELLSRRGFSFSPAILLAIHKELFQDIFEPSIPVGQFRQTNITKNEPVLNGESVVYSDYSMIQMTLDYDFNQEKQVAYATLTQADMVKKIQHFISGIWQIHPFREGNTRTVTVFLIQYLREFGFDIDNTPFQQHSKYFRDALVLDNAKILQRRPEFLTAFFENLLLGGQNDLSSEKMYLDLDLDLS
MGSDKIHHHHHHMQQAIEQTATGGALRFNGICKVFPGVKALSDISFEARPGSVHALMGENGAGKSTLLKILGGSYQPNSGTLQIGEHSYQFKSTAESIAAGVAVIHQELHLVPEMTVAENLLLGHMPNRFGLINRGAMYRRAGELLKGLADEIDPRTRLGDLSLGQRQLVEIAKAMSRNAHVIAFDEPTSSLSAREIDRLMAIIVRLRDEGRVILYVSHRMEEIFRVCDAVTVFKDGRFVKTFEQMADLDHDRLVTCMVGRDIQDIYNYRPRQHQGPSLRVTGLLGLGLQEPVSFAVQKGEVLGFFGLVGAGRTELFRILSGLTRSTAGSLQLDGQPLTLKSPRDAIAAGVLLCPEDRKKEGIVPLSSVAENINIGARPRHVNLGCLIQGGWERDNARAQIKSMNVKTPSPEQQIMFLSGGNQQKAILGRWLSMPMKVLLLDEPTRGIDVGAKSEIYEIIHTLAADGIAVIVVSSDLMEVMGISDRILVMSEGAITGELNRDEADESRLLQLALPRTRG
MGSDKIHHHHHHMQQEIIDFRQSQSLAGAELSRASYQRFDFGRHVHEDLHLGAVIRGAQAFNHKGTGHTLCRGDLSTLSPDECHDGIAATDTGYEVLVLSLPQWHLDRFAAELGISFGGFCQPKRKDMALYQAFVSLHRLLYQAENPLLEETALLDFFQRLLGQCSKSEKVTNTGTVKAGLSREIRLAKSLMADTPEPVTLELLGDATGLGRYRLLRHFRAQTGLSPHQWQLRLRLERAKKSLMQNDGNSLTDIAHQHGFSDLSHFTRHFRMAFLTSPSAYRRAIRN
